Assay [1] has as its target Tf receptor on Caco-2 cells (human (endogenous in Caco-2)) (UniProt P02786). In words: radioligand binding.
Assay [2] addresses G-CSF receptor on NFS-60 cells (mouse (endogenous in NFS-60)) (UniProt P40223). As to the kind of experiment: radioligand binding.
Sequence of UniProt P40223 (P40223 26-837): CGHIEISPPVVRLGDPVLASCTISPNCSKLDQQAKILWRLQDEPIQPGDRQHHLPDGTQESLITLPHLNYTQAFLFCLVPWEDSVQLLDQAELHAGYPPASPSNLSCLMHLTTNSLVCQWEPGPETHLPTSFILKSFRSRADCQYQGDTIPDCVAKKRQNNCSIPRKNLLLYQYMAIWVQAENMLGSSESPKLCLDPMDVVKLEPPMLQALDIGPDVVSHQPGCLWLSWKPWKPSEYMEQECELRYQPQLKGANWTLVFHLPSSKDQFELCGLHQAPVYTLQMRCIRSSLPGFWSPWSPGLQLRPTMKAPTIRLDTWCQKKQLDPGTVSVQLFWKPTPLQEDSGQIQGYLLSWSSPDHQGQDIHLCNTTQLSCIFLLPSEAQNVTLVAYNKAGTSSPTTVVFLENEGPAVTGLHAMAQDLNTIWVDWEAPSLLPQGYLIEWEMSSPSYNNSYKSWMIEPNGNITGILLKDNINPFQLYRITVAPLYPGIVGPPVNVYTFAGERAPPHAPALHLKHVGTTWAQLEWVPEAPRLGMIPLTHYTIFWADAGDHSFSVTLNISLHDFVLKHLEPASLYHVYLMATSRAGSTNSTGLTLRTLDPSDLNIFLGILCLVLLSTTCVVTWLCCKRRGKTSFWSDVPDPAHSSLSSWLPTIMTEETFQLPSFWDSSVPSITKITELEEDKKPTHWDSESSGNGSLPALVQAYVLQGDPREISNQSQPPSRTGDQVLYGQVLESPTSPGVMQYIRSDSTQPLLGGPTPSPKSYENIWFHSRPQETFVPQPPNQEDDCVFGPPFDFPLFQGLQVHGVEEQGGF

Sequence of UniProt P02786 (P02786 whole entry): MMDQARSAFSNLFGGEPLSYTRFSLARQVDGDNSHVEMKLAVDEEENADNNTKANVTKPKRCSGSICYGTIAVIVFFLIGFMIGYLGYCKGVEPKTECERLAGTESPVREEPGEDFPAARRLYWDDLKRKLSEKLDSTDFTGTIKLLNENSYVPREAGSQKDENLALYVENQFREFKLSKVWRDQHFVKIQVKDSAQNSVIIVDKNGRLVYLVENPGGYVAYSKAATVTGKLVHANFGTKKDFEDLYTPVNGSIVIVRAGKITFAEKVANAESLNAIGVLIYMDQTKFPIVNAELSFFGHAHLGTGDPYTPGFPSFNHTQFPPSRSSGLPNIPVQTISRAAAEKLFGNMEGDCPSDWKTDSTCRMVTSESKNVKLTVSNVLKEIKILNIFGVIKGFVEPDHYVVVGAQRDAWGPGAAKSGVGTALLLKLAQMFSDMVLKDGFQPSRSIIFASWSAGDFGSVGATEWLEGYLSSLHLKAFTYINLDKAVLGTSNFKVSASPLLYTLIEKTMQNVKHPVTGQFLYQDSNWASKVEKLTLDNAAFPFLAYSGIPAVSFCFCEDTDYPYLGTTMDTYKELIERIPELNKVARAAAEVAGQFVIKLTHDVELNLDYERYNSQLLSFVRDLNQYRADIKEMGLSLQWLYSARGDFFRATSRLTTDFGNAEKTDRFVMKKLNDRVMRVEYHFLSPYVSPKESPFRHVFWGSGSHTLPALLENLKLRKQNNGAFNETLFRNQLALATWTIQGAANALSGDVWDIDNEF

As usually defined, the IC50 is the concentration that inhibits the measured activity by half. High values mean lower potency, low ones higher potency. “G-CSF-LE-Tf fusion protein (dipeptide linker)”: the values for the IC50 in assay [1] and in assay [2] were 0.0075 µM and 0.038 µM, respectively.
Consider “GH-LE-Tf fusion protein (dipeptide linker)”, for which the concentration for half-maximal inhibition (IC50) in assay [1] came out at 0.0212 µM.
As for “recombinant human G-CSF, aglycosylated (Neupogen) (from UniProt P09919-2 31-204) (ligand)”, in assay [2], the IC50 was 0.113 µM.

(Values after publication PMC3310397.)
